Laboratory results taken from patent US20240066061A1.

Biological target: chemokine receptor CXCR3 (human) (UniProt P49682)
Assay: cell-based or functional assay

UniProt P49682, sequence (P49682 whole entry): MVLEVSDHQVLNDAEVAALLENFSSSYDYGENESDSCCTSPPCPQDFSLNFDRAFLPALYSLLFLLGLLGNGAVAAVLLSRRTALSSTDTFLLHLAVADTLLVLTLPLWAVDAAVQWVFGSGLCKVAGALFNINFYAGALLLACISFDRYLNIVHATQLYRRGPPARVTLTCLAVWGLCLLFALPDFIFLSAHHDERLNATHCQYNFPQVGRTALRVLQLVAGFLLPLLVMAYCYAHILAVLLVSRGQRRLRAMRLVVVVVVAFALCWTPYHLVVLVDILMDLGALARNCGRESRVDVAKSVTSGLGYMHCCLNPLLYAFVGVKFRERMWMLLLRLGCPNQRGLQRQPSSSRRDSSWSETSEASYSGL

“CXCL10 (from UniProt P02778 22-98) (ligand)” gave a chemokine concentration at maximum cell migration of CD8+ TSCM of 100 ng/mL and a chemotactic index, in-vitro transwell migration of human T cells of 2.

B1: CXCL11 (ligand, UniProt O14625 22-94, looked up)
chain: FPMFKRGRCLCIGPGVKAVKVADIEKASIMYPSNNCDKIEVIITLKENKGQRCLNPKSKQARLIIKKVERKNF
B1 was tested, and the chemokine concentration at maximum cell migration of CD8+ TSCM was 100 ng/mL, the chemotactic index, in-vitro transwell migration of human T cells was 2 and the fold enrichment of CXCR3+ cells after 21 days stimulation with CMV epitopes and CXCL11 was 10000 fold.

B2: CXCL9 (ligand, UniProt Q07325 23-125, looked up)
chain: TPVVRKGRCSCISTNQGTIHLQSLKDLKQFAPSPSCEKIEIIATLKNGVQTCLNPDSADVKELIKKWEKQVSQKKKQKNGKKHQKKKVLKVRKSQRSRQKKTT
Molecule B2 has a chemokine concentration at maximum cell migration of CD8+ TSCM of 100 ng/mL and a chemotactic index, in-vitro transwell migration of human T cells of 2.
